Results as given in PMC2119551.

Target: aFGF receptors on the surface of NBT-II cells (rat (endogenous in NBT-II))
Assay: radioligand binding

Substance: Human recombinant acidic FGF (from UniProt P05230 1-155) (ligand)
- cpm bound (cells preincubated with 100 ng/ml pertussis toxin): 11800 cpm
- cpm bound (cells preincubated with 10 ug/ml cholera toxin): 13600 cpm
- cpm bound (cells preincubated with 100 uM forskolin): 14300 cpm
- cpm bound (untreated cells): 12700 cpm
